“Also recorded” adds a separate entry of the source.
Test system: GFP-DLC1
Test: GST pull-down of GFP-DLC1 in A549 cells
Type: cell-based
Details: A549 cell extracts, anti-DLC1 immunoblot, listed as wild-type GST-R8
Excerpt: However, as talin R8 interacts with RIAM ([Goult et al., 2013b]) and paxillin (shown here) in addition to DLC1, we used several approaches to evaluate whether binding of talin R8 to endogenous RIAM or paxillin might have contributed to the observed results. For RIAM, the level of expression in the cell lines used here varied from very low to undetectable. To detect RIAM protein in any of the cell extracts, we had to use an anti-RIAM immunoprecipitation step followed by anti-RIAM immunoblotting. Using these conditions, endogenous RIAM was detected in A549 and H358 cells, but not in 293T cells (Figure S5A).
Figure S5, related to figure 6. […]
form a detectable complex with GST-talin R8.
(A) The expression of endogenous RIAM in cell lines. Cell extracts were subjected to immunoprecipitation followed by immunoblotting with anti-RIAM antibody.
(B) A complex between GST-talin R8 and endogenous RIAM is undetectable in A549 cells.
A549 cells were co-transfected with GFP-DLC1 and the GST constructs indicated. Cell extracts were subject to a glutathione bead pull down assay followed by immunoblotting with anti-GST and anti-RIAM antibodies on the same membrane (left). No complex between GST-talin R8 and RIAM could be detected. Under the same conditions, wild-type GST-R8 pulled-down the co-transfected GFP-DLC1; the immunoblot with anti-GST and anti-DLC1 on the same membrane is shown (right). […]

B1: GST-R8: GST-tagged talin R8, amino acids 1,453–1,580 (protein)
chain: NSQAGQQGLVEPTQFARANQAIQMACQSLGEPGCTQAQVLSAATIVAKHTSALCNSCRLASARTANPTAKRQFVQSAKEVANSTANLVKTIKALDGDFTEENRAQCRAATAPLLEAVDNLSAFASNPE
modifications: left off: GST, end not stated, kept
binding of GFP-DLC1: pulled-down; also recorded: did bind GFP-DLC1

From article PMC4938799, “LD Motif Recognition by Talin: Structure of the Talin-DLC1 Complex” (Structure(London, England:1993), 2016)
